B1: Transcriptional activator GLI3 (Homo sapiens), P10071 (parent)
chain: MEAQSHSSTTTEKKKVENSIVKCSTRTDVSEKAVASSTTSNEDESPGQTYHRERRNAITMQPQNVQGLSKVSEEPSTSSDERASLIKKEIHGSLPHVAEPSVPYRGTVFAMDPRNGYMEPHYHPPHLFPAFHPPVPIDARHHEGRYHYDPSPIPPLHMTSALSSSPTYPDLPFIRISPHRNPTAASESPFSPPHPYINPYMDYIRSLHSSPSLSMISATRGLSPTDAPHAGVSPAEYYHQMALLTGQRSPYADIIPSAATAGTGAIHMEYLHAMDSTRFSSPRLSARPSRKRTLSISPLSDHSFDLQTMIRTSPNSLVTILNNSRSSSSASGSYGHLSASAISPALSFTYSSAPVSLHMHQQILSRQQSLGSAFGHSPPLIHPAPTFPTQRPIPGIPTVLNPVQVSSGPSESSQNKPTSESAVSSTGDPMHNKRSKIKPDEDLPSPGARGQQEQPEGTTLVKEEGDKDESKQEPEVIYETNCHWEGCAREFDTQEQLVHHINNDHIHGEKKEFVCRWLDCSREQKPFKAQYMLVVHMRRHTGEKPHKCTFEGCTKAYSRLENLKTHLRSHTGEKPYVCEHEGCNKAFSNASDRAKHQNRTHSNEKPYVCKIPGCTKRYTDPSSLRKHVKTVHGPEAHVTKKQRGDIHPRPPPPRDSGSHSQSRSPGRPTQGALGEQQDLSNTTSKREECLQVKTVKAEKPMTSQPSPGGQSSCSSQQSPISNYSNSGLELPLTDGGSIGDLSAIDETPIMDSTISTATTALALQARRNPAGTKWMEHVKLERLKQVNGMFPRLNPILPPKAPAVSPLIGNGTQSNNTCSLGGPMTLLPGRSDLSGVDVTMLNMLNRRDSSASTISSAYLSSRRSSGISPCFSSRRSSEASQAEGRPQNVSVADSYDPISTDASRRSSEASQSDGLPSLLSLTPAQQYRLKAKYAAATGGPPPTPLPNMERMSLKTRLALLGDALEPGVALPPVHAPRRCSDGGAHGYGRRHLQPHDAPGHGVRRASDPVRTGSEGLALPRVPRFSSLSSCNPPAMATSAEKRSLVLQNYTRPEGGQSRNFHSSPCPPSITENVTLESLTMDADANLNDEDFLPDDVVQYLNSQNQAGYEQHFPSALPDDSKVPHGPGDFDAPGLPDSHAGQQFHALEQPCPEGSKTDLPIQWNEVSSGSADLSSSKLKCGPRPAVPQTRAFGFCNGMVVHPQNPLRSGPAGGYQTLGENSNPYGGPEHLMLHNSPGSGTSGNAFHEQPCKAPQYGNCLNRQPVAPGALDGACGAGIQASKLKSTPMQGSGGQLNFGLPVAPNESAGSMVNGMQNQDPVGQGYLAHQLLGDSMQHPGAGRPGQQMLGQISATSHINIYQGPESCLPGAHGMGSQPSSLAVVRGYQPCASFGGSRRQAMPRDSLALQSGQLSDTSQTCRVNGIKMEMKGQPHPLCSNLQNYSGQFYDQTVGFSQQDTKAGSFSISDASCLLQGTSAKNSELLSPGANQVTSTVDSLDSHDLEGVQIDFDAIIDDGDHSSLMSGALSPSIIQNLSHSSSRLTTPRASLPFPALSMSTTNMAIGDMSSLLTSLAEESKFLAVMQ
partner: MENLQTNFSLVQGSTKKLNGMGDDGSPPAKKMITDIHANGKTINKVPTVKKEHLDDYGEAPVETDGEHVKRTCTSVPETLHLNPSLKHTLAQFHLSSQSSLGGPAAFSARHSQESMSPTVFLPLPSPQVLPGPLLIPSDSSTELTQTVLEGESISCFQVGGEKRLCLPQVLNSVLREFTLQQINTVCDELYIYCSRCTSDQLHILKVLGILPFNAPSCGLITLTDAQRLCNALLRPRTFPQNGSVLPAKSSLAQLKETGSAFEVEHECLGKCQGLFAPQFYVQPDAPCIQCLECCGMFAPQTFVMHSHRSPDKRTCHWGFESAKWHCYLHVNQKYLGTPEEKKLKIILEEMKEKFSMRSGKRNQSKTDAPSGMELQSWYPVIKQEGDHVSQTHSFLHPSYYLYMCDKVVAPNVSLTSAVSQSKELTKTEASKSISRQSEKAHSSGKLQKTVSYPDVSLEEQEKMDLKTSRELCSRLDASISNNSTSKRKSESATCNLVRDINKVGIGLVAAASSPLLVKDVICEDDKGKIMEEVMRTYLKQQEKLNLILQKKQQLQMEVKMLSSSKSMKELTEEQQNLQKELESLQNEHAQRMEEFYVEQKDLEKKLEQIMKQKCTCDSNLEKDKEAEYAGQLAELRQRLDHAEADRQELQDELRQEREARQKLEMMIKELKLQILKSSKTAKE

Variants of: B1
Conditions: with skil_human SKIL

effect of a mutation on the interaction	Variant
decreasing interaction strength	M111T

Reference: IntAct's records for PubMed 24819706
